Reference: US20220411521A1 (Ablynx, published 2022)

T1: human GITR (human, UniProt Q9Y5U5 26-241)
T1 construct: also called glucocorticoid-induced TNFR family-related receptor; TNFRSF18
T1 sequence: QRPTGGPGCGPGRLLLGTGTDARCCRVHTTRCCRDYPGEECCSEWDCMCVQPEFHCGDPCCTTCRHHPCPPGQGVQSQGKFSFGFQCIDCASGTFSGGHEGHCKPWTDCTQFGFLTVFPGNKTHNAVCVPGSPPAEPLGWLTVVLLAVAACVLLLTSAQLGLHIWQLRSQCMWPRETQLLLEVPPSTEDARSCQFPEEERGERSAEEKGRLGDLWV

T2: human GITR-Fc (Enzo Life Sciences, ALX-522-061-C050) (human, UniProt Q9Y5U5 26-162)
T2 construct: Bought protein; not shown: Fc part of the bought fusion protein; not described
T2 sequence: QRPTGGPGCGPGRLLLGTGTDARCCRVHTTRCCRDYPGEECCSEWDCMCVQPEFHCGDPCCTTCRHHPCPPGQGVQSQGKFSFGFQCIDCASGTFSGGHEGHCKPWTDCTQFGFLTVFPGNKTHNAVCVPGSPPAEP


What was measured:
human GITR = molecular target: T1, human GITR; assay: flow cytometry on activated human T cells, anti-FLAG detection
Procedure: Binding of purified monovalent anti-GITR Nanobodies to human GITR expressed on activated T cells was evaluated in flow cytometry. For this purpose, PBMCs from healthy donors were cultured with Dynabeads® Human T-Activator CD3/CD28 (Gibco—Life Technologies #11131D) for 7 days in a 1/2 bead/cell ratio.
Dilution series of Nanobodies starting from […] were applied to the cells. Nanobodies were allowed to associate for 30 minutes at 4° C. in FACS buffer (PBS supplemented with 10% FBS and 0.05% azide). Cells were washed by centrifugation and probed with anti-FLAG antibodies (Sigma F1804) for 30 minutes at 4° C., to detect bound Nanobody. […] Cells were washed and incubated with TOPRO3 to stain for dead cells which were subsequently removed during the gating procedure. The cells were then analysed via a BD FACSArray.

[1] = molecular target: T2, human GITR-Fc (Enzo Life Sciences, …); assay: ProteOn XPR36; human GITR-Fc amine-coupled on GLC chip, Nanobody injected at 6 concentrations
Procedure: Affinity was determined on the Proteon XPR36. Briefly, after human GITR-Fc (Enzo Life Sciences, ALX-522-061-C050) was immobilized on a GLC chip via amine coupling, a range of 6 concentrations of different monovalent Nanobodies (representing each family) were injected. The Ko values were determined by using the calculated association rate and dissociation rate constants (Table 1) (ProteOn Manager 3.1.0, Version 3.1.0.6 (2011)).

EC50 (human GITR) | Kd [1] | koff [1] | kon [1] | Binder
0.54 nM | 2.5 nM | 0.00067 s⁻¹ | 270000 M⁻¹ s⁻¹ | A0231034A08 (VHH, Monovalent Nanobody expressed in E. coli with a triple Flag, HIS6 tag; also called A0231PMP034A08; PA0231PMP034A08.1; not shown: C-terminal triple FLAG and HIS6 tag) VHH: EVQLVESGGDLVQPGGSLRLSCAASGSVFSINDMGWFRQAPGKQRELVADIISRGVTNYADSVKGRFTISGDPAKNTVYLQMNSLKPEDTAVYYCNAHISTGWGRPHNNYWGQGTQVTVSS
23 nM | 24 nM | 0.00097 s⁻¹ | 41000 M⁻¹ s⁻¹ | A0231052A08 (VHH, Monovalent Nanobody expressed in E. coli with a triple Flag, HIS6 tag; also called A0231PMP052A08; PA0231PMP052A08.1; not shown: C-terminal triple FLAG and HIS6 tag) VHH: EVQLVESGGGLVQAGGSLRLSCVASGSISSITAMGWHRQAPGAQREGVAVISRSGATMLVDSVKGRFTIVQDNAKNTVYLQMNSLKVEDTAVYGCSAITQGRTYWGQGTLVTVSS
1.3 nM | 4.6 nM | 0.0029 s⁻¹ | 630000 M⁻¹ s⁻¹ | A0231003D11 (VHH, Monovalent Nanobody expressed in E. coli with a triple Flag, HIS6 tag; also called A0231PMP003D11; PA0231PMP003D11.1; not shown: C-terminal triple FLAG and HIS6 tag) VHH: EVQLVESGGGLVQAGESLRLSCAASGSIFSIDAMGWYRQAPGKQRELVAEISDHTTYGDSVKGRFTISRGNAENTVALQMNSLKPEDTGVYYCNVHHQRGWGTSITVTWGQGTQVTVSS
0.61 nM | 2.6 nM | 0.0027 s⁻¹ | 1.1e+06 M⁻¹ s⁻¹ | A0231004B01 (VHH, Monovalent Nanobody expressed in E. coli with a triple Flag, HIS6 tag; also called A0231PMP004B01; PA0231PMP004B01.1; not shown: C-terminal triple FLAG and HIS6 tag) VHH: EVQLVESGGGLVQPGGSLRLSCAASGSIFSIDSMGWYRQAPGKQRELVAAITSSTNYADSVKGRFTISRDNAKNTVYLQMNSLKPEDTAVYYCNLEGQAGWGTALINYWGKGTLVTVSS
21 nM | 16 nM | 0.008 s⁻¹ | 490000 M⁻¹ s⁻¹ | A0231033B02 (VHH, Monovalent Nanobody expressed in E. coli with a triple Flag, HIS6 tag; also called A0231PMP033B02; PA0231PMP033B02.1; not shown: C-terminal triple FLAG and HIS6 tag) VHH: EVQLVESGGGLVQPGGSLRLSCAASGTIFSISTMGWYRQAPGKQREVVAVTSGFSTNYSSAVKGRFTLSRDPAKNTVFLQMNSLQPEDTATYYCNAYLSLAWRDPDRDYWGQGTQVTVSS
0.79 nM | 3.4 nM | 0.0023 s⁻¹ | 680000 M⁻¹ s⁻¹ | A0231005A03 (VHH, Monovalent Nanobody expressed in E. coli with a triple Flag, HIS6 tag; also called A0231PMP005A03; PA0231PMP005A03.1; not shown: C-terminal triple FLAG and HIS6 tag) VHH: EVQLVESGGGLVQPGGSLRLSCAASETIFSIDSMAWYRQAPGKQRELVAAITGGGSPNYADSVKGRFTISSDVAKRTVYLQMNSLKPEDTAVYYCNAEGQAGWGTALMDYWGKGTLVTVSS
